Several values for one entry are separate records, joined by “and”; a condition that tells them apart may be missing. Identical values can stand only once.
What was measured:
[1] = molecular target: T1, OsCyc1^69–767 (Oryza sativa, UniProt Q0JF02, D367A); settings: 0.1 mM GGPP soaked; 20 mM Tris-HCl pH 8.0, 200 mM NaCl, 2 mM DTT, 5 mM MgCl2; active site between beta and gamma domains
T1 construct: gene CPS4

[2] = molecular target: T2, OsCyc1 (full-length) (Oryza sativa, UniProt Q0JF02); settings: pH 8.0, 16 °C, 2 h, no added Mg2+; product syn-CPP
T2 construct: gene CPS4

[3] = molecular target: OsCyc1^D367A mutant (in complex with the substrate GGPP) (Oryza sativa) (UniProt Q0JF02); assay: cryo-EM structure; OsCyc1 D367A at 3 mg/mL in buffer B, soaked with 0.1 mM GGPP; hexamer used as initial model for 3D classification; 4.0 Å
[4] = molecular target: the molecule itself; assay: cryo-EM structure; WT OsCyc1 at 1.8 mg/mL in buffer B (20 mM Tris-HCl pH 8.0, 200 mM NaCl, 2 mM DTT, 5 mM MgCl2); dimers, tetramers and hexamers selected separately after 2D classification
[5] = molecular target: the molecule itself; assay: crystal structure; OsCyc1 69-767 at 10 mg/mL, hanging drop, 18 °C, 2% 1,4-dioxane, 0.1 M Tris pH 8.0, 15% PEG 3,350; space group P212121, hexamer in the asymmetric unit; 3.5 Å

T2 sequence (Q0JF02 whole entry): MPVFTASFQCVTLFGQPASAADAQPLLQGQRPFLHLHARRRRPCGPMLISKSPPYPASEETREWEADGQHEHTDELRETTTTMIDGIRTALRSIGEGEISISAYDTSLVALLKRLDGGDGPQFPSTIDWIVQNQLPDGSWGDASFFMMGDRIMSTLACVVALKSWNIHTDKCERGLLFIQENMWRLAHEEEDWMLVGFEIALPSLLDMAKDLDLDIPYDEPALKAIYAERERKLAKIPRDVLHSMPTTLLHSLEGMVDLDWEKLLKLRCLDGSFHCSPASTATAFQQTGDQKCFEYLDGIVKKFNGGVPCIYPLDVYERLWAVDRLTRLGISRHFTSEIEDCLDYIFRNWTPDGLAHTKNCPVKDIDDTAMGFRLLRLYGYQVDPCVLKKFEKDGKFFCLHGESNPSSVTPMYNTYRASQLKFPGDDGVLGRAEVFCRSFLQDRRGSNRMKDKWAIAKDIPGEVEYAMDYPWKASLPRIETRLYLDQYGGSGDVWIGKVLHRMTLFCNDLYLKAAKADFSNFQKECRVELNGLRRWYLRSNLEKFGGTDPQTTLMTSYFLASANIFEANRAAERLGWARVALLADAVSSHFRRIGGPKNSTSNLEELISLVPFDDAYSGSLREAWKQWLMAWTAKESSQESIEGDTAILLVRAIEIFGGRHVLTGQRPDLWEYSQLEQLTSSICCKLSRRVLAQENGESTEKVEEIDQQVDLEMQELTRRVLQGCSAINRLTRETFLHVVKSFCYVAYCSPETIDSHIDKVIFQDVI
T1 sequence (Q0JF02 69-767 D367A): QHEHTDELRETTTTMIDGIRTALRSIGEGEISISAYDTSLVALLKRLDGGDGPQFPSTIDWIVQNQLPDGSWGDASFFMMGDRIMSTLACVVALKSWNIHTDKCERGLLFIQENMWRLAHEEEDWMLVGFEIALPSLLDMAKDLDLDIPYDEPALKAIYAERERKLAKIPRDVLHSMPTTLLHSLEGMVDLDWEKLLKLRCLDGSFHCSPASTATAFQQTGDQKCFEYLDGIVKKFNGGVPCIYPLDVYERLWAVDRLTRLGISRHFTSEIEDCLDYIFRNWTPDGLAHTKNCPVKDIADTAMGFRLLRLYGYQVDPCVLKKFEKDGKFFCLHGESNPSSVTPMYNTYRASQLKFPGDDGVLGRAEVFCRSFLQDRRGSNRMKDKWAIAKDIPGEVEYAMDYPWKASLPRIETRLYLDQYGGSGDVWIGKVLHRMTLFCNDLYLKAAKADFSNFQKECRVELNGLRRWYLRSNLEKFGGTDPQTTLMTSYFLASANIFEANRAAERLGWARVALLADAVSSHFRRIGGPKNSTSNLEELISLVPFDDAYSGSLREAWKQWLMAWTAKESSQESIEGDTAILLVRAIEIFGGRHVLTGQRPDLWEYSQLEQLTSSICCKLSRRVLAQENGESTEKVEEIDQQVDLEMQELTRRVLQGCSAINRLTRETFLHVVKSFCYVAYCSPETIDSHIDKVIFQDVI

CC(C)=CCC/C(C)=C/CC/C(C)=C/CC/C(C)=C/COP(=O)(O)OP(=O)(O)O [GGPP]
cryo-EM structure of the complex, 4.0 A [1]: cryo-EM structure of the OsCyc1^D367A mutant in complex with substrate GGPP | GC-MS of dephosphorylated product [2]: OsCyc1 catalyzes GGPP to form syn-CPP

OsCyc1^D367A mutant (in complex with the substrate GGPP) (from UniProt Q0JF02 69-767) (enzyme)
stoichiometry N [3]: 6

B1: OsCyc1, wild type, as used for cryo-EM (enzyme, Oryza sativa)
chain: LISKSPPYPASEETREWEADGQHEHTDELRETTTTMIDGIRTALRSIGEGEISISAYDTSLVALLKRLDGGDGPQFPSTIDWIVQNQLPDGSWGDASFFMMGDRIMSTLACVVALKSWNIHTDKCERGLLFIQENMWRLAHEEEDWMLVGFEIALPSLLDMAKDLDLDIPYDEPALKAIYAERERKLAKIPRDVLHSMPTTLLHSLEGMVDLDWEKLLKLRCLDGSFHCSPASTATAFQQTGDQKCFEYLDGIVKKFNGGVPCIYPLDVYERLWAVDRLTRLGISRHFTSEIEDCLDYIFRNWTPDGLAHTKNCPVKDIDDTAMGFRLLRLYGYQVDPCVLKKFEKDGKFFCLHGESNPSSVTPMYNTYRASQLKFPGDDGVLGRAEVFCRSFLQDRRGSNRMKDKWAIAKDIPGEVEYAMDYPWKASLPRIETRLYLDQYGGSGDVWIGKVLHRMTLFCNDLYLKAAKADFSNFQKECRVELNGLRRWYLRSNLEKFGGTDPQTTLMTSYFLASANIFEANRAAERLGWARVALLADAVSSHFRRIGGPKNSTSNLEELISLVPFDDAYSGSLREAWKQWLMAWTAKESSQESIEGDTAILLVRAIEIFGGRHVLTGQRPDLWEYSQLEQLTSSICCKLSRRVLAQENGESTEKVEEIDQQVDLEMQELTRRVLQGCSAINRLTRETFLHVVKSFCYVAYCSPETIDSHIDKVIFQDVI
notes: syn-copalyl diphosphate synthase OsCyc1 (OsCPS4), Oryza sativa, wild type; the cryo-EM methods say only 'OsCyc1'); the deposited entries tell the construct; Probably the same protein as m1 or m2; also called WT OsCyc1; source: E. coli BL21(DE3), purified; in buffer B
stoichiometry N [4]: 2 and 4 and 6

B2: OsCyc1^69–767 (N-terminal truncation variant of syn-copalyl diphosphate synthase from Oryza sativa) (enzyme, UniProt Q0JF02 69-767, looked up)
chain: QHEHTDELRETTTTMIDGIRTALRSIGEGEISISAYDTSLVALLKRLDGGDGPQFPSTIDWIVQNQLPDGSWGDASFFMMGDRIMSTLACVVALKSWNIHTDKCERGLLFIQENMWRLAHEEEDWMLVGFEIALPSLLDMAKDLDLDIPYDEPALKAIYAERERKLAKIPRDVLHSMPTTLLHSLEGMVDLDWEKLLKLRCLDGSFHCSPASTATAFQQTGDQKCFEYLDGIVKKFNGGVPCIYPLDVYERLWAVDRLTRLGISRHFTSEIEDCLDYIFRNWTPDGLAHTKNCPVKDIDDTAMGFRLLRLYGYQVDPCVLKKFEKDGKFFCLHGESNPSSVTPMYNTYRASQLKFPGDDGVLGRAEVFCRSFLQDRRGSNRMKDKWAIAKDIPGEVEYAMDYPWKASLPRIETRLYLDQYGGSGDVWIGKVLHRMTLFCNDLYLKAAKADFSNFQKECRVELNGLRRWYLRSNLEKFGGTDPQTTLMTSYFLASANIFEANRAAERLGWARVALLADAVSSHFRRIGGPKNSTSNLEELISLVPFDDAYSGSLREAWKQWLMAWTAKESSQESIEGDTAILLVRAIEIFGGRHVLTGQRPDLWEYSQLEQLTSSICCKLSRRVLAQENGESTEKVEEIDQQVDLEMQELTRRVLQGCSAINRLTRETFLHVVKSFCYVAYCSPETIDSHIDKVIFQDVI
notes: plastid targeting peptide removed; codon-optimized synthetic gene; monomer 80.8 kDa; Cloned in pET-24a(+) between NdeI and XhoI 'including a His-tag'; this cloning would usually give a C-terminal His6 (surmise); also called truncated OsCyc1; pseudo-mature protein
stoichiometry N [5]: 6
